Measurements from the supplement of paper PMC10126150.
± gives the standard deviation of the averaged measurements.

Tested on: ATP
Test: switch fluorescence ratio, 500 uM ATP over buffer (Cy3 cluster intensity, sum of 5 cycles each) (fold (ratio)); higher = stronger signal-on switching upon ATP binding; sequences stand for … in TCGTCGGCAGCGTCAGATGTGTATAAGAGACAGTTTTTTTTTTTTTTTTTTTTTTTTT…TC
Conditions: aptamer strand: ATP DNA aptamer (quencher-CACCTGGGGGAGTATTGCGGAGGAAGG + anchor), 100 nM annealed; ATP concentration: 500 uM
Method in brief: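 Switching-strand clusters labelled with Cy3 on a modified Illumina MiSeq flow-cell were annealed to 100 nM quencher-labelled ATP aptamer, imaged in selection buffer, and re-imaged after 15 min with 500 uM ATP at 22 °C. This was done over five cycles with NaOH stripping and re-annealing in between. The fluorescence ratio is summed target-cycle over summed buffer-cycle Cy3 intensity per cluster, averaged per switch-domain sequence, excluding clusters outside 100-1000 RFU.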
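Note: ATP exposure 15 min at 22 °C before imaging.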

Row | Sequence | switch fluorescence ratio
1 | TTCGGCGGGC | 1 ± 0.027
2 | TGGGGACTAT | 1.02 ± 0.012
3 | TGTTGGGGCT | 0.999 ± 0.04
4 | ACTATGTCTT | 1.005 ± 0.0049
5 | TGGGGATGTA | 0.976 ± 0.014
6 | TCCCGCTGGG | 1.17 ± 0.22
7 | GAGGACTTAG | 0.989 ± 0.022
8 | TGAGCGGGAA | 1.01 ± 0.02
9 | ATGAATTGTT | 0.974 ± 0.02
10 | TGGGGCATCG | 1 ± 0.029
11 | CAAAAATTTT | 0.986 ± 0.026
12 | GGATTGTGAA | 1 ± 0.025
13 | TCGTAGGGG | 0.961 ± 0.018
14 | TAATTTGGAA | 1.009 ± 0.0095
15 | AGTTTTGATG | 0.9784 ± 0.0044
16 | GGTTTAAGAA | 1.02 ± 0.023
17 | TGTTTGATAT | 0.9917 ± 0.005
18 | TAAGGACGGC | 1.06 ± 0.035
19 | GTTCACTTTT | 1.02 ± 0.036
20 | GGGGGAGCTG | 0.978 ± 0.019
21 | CCGAAATTTA | 1.19 ± 0.02
22 | TGAGACTAGT | 0.989 ± 0.023
23 | GCTTGGCAAC | 1.02 ± 0.012

Row | Sequence | switch fluorescence ratio
24 | GGTCTTTTGG | 0.981 ± 0.013
25 | TAGGGGTGCA | 1.079 ± 0.009
26 | TTTCTGGCTT | 1.02 ± 0.051
27 | ACGCGCTTTA | 0.99871 ± 0.00033
28 | CGGGGGACGG | 0.982 ± 0.029
29 | CCCAGGTTAG | 2.9 ± 0.2
30 | AAAAATTCCG | 1.045 ± 0.0036
31 | CCGTTGAAGG | 1.01 ± 0.016
32 | ATCGCGGGGT | 0.979 ± 0.025
33 | GGGGAAGAAG | 0.969 ± 0.02
34 | CAACTCAGTA | 0.988 ± 0.016
35 | AGTTTGATAG | 0.998 ± 0.017
36 | TGGAATAGGT | 0.999 ± 0.031
37 | GGCCGTTCGT | 1.008 ± 0.0091
38 | TATTTCTTGG | 0.968 ± 0.014
39 | CGTAGGAAAA | 0.98 ± 0.096
40 | TGGGGAAGTG | 0.987 ± 0.025
41 | AAGGCCGGGT | 1.05 ± 0.054
42 | ATAGTCTACG | 1.02 ± 0.042
43 | TGTTATTGTT | 1.03 ± 0.012
44 | TTATCTGGGC | 0.9757 ± 0.0037
45 | ATTGGGGTGC | 0.992 ± 0.013
46 | TTATCTTGGT | 1 ± 0.015

Row | Sequence | switch fluorescence ratio
47 | TTTAAATGTT | 0.991 ± 0.031
48 | AGGGCTGCCT | 1.05 ± 0.096
49 | GTTTGTGC | 0.998 ± 0.059
50 | AGCGATGCTT | 1.133 ± 0.011
51 | CTAGGCAGGG | 1.01 ± 0.005
52 | TGTCATAATG | 0.97 ± 0.015
53 | AATCCTTTTT | 1.004 ± 0.0084
54 | GATTCAGCGC | 0.99 ± 0.03
55 | CGTTGAGATC | 1.06 ± 0.059
56 | TTTGTTTATA | 0.9992 ± 0.0034
57 | GCTAGGACGT | 0.997 ± 0.03
58 | GGCTCTTAGG | 0.975 ± 0.03
59 | ACGTCCGTTT | 1.04 ± 0.019
60 | CGGATGAGTG | 0.953 ± 0.1
61 | GGATCCTGGG | 0.993 ± 0.022
62 | GCTCTTGACA | 1 ± 0.011
63 | TATTGATTTG | 1.02 ± 0.019
64 | TGCTGAAGGG | 1.04 ± 0.03
65 | CATTTTAGTG | 1 ± 0.0021
66 | CATCGAATGC | 1.23 ± 0.12
67 | GTGTAATAGT | 0.996 ± 0.021
68 | ACTATTGGTG | 1.12 ± 0.035
69 | AGGTTTATAT | 0.999 ± 0.016

Row | Sequence | switch fluorescence ratio
70 | TACCACGGGG | 1.04 ± 0.019
71 | TTTGTAGCTG | 1.4 ± 0.046
72 | ATGGGACAGG | 0.999 ± 0.033
73 | AGAGCGGGGG | 1.02 ± 0.038
74 | AGACGAAAGT | 0.998 ± 0.054
75 | CGCGATGGGT | 1.08 ± 0.033
76 | GTTGGAGAGG | 0.974 ± 0.087
77 | AAACTAAAAA | 1 ± 0.033
78 | GACTGTAGGA | 1.03 ± 0.0051
79 | AAGAAGGGCA | 1 ± 0.055
80 | GAGTTCGGGG | 0.987 ± 0.014
81 | GTCGGGAGCC | 0.967 ± 0.018
82 | AGTCTTTTTG | 0.999 ± 0.03
83 | TGTCAGGGCA | 1.02 ± 0.064
84 | GGGCAACTGA | 1.01 ± 0.024
85 | AATGGGTGAT | 0.9826 ± 0.0024
86 | CGATGCATGG | 1.71 ± 0.19
87 | GTAAACGGTA | 1.08 ± 0.064
88 | GAGTTCGCGG | 1.034 ± 0.01
89 | AATAGGATCG | 1.01 ± 0.045
90 | TCCGGTTTTT | 1.07 ± 0.16
91 | CAAAGCGCTG | 0.986 ± 0.012
92 | AAGTTGGATA | 0.993 ± 0.019

Row | Sequence | switch fluorescence ratio
93 | AATTCACTAA | 1.028 ± 0.0063
94 | GCACGTCGAA | 1.08 ± 0.032
95 | CAGAGTGTGA | 1.005 ± 0.0086
96 | GCTGCCGTGT | 0.967 ± 0.064
97 | TTCAATTCCG | 1.03 ± 0.092
98 | CACGGAGAGT | 1.14 ± 0.18
99 | TTTCCCAATT | 1.16 ± 0.16
100 | TGTTCGAGGG | 1.02 ± 0.059
101 | CTGAAGTTGT | 1.01 ± 0.032
102 | TTATAATATT | 1.03 ± 0.025
103 | TCCTGTTTTC | 0.987 ± 0.021
104 | CAGTAAAAGG | 1.01 ± 0.028
105 | AAAGTGAGGG | 0.986 ± 0.013
106 | TGAGGGAGGC | 1.06 ± 0.06
107 | ATAATCAAGG | 1.01 ± 0.032
108 | ATGCTATAGT | 1.021 ± 0.0025
109 | GTAGGGTGCT | 1.042 ± 0.0064
110 | CATGAGGAGT | 1.01 ± 0.0022
111 | GGAATTAGGT | 0.9903 ± 0.0077
112 | TCGGGGTTTC | 1.05 ± 0.019
113 | TTTGACGCAT | 1.6 ± 0.67
114 | TTAACCGATA | 1.04 ± 0.031
115 | CGCAGGAAAG | 0.973 ± 0.0023

Row | Sequence | switch fluorescence ratio
116 | TGACATGTAG | 1.01 ± 0.052
117 | ATGAGCTGAG | 1.01 ± 0.035
118 | AATCAAAAAT | 0.949 ± 0.043
119 | TAGGCACCGA | 1.03 ± 0.053
120 | GGGGCAAAAA | 1.08 ± 0.12
121 | TTAAAACCGT | 1.02 ± 0.029
122 | ACGATGGTTT | 0.984 ± 0.04
123 | TGATCACTAT | 1.007 ± 0.0076
124 | AATTTTATCG | 0.9741 ± 0.0085
125 | TACGTTGACC | 1.26 ± 0.016
126 | ACCAGGGTGG | 1.03 ± 0.068
127 | TGATGTTGAA | 0.99891 ± 0.00059
128 | TGGGAAAATT | 1 ± 0.033
129 | GGGTCGCGTG | 1.02 ± 0.033
130 | TACGGGGGG | 1.02 ± 0.035
131 | TGTATATGG | 0.958 ± 0.016
132 | TCAATGGCTA | 1.02 ± 0.018
133 | ATATTTATAG | 0.9944 ± 0.0071
134 | GGATTTGGCC | 1 ± 0.043
135 | TTTGGGTAGT | 1.04 ± 0.034
136 | AGGTTGCAGC | 0.992 ± 0.032
137 | GCTGTAGTTG | 0.993 ± 0.019
138 | CCGTGTGACT | 1.08 ± 0.042

Row | Sequence | switch fluorescence ratio
139 | GGAACGGGCT | 1 ± 0.021
140 | ATAACGCGGT | 0.9967 ± 0.0047
141 | ACGACCGGGT | 1.2 ± 0.037
142 | ATATTTGGGG | 1.02 ± 0.046
143 | TAGGTTTGCG | 0.994 ± 0.053
144 | TCAAGGGGTT | 1.1 ± 0.15
145 | TTTCGTTCGC | 1.302 ± 0.013
146 | TCAAGGGGGA | 1 ± 0.035
147 | CGGGAAAACG | 0.995 ± 0.012
148 | TGGTTTTAGC | 0.9886 ± 0.0028
149 | TCGAATATTT | 1.02 ± 0.073
150 | ATTTTAGAGC | 1.05 ± 0.038
151 | GAAACGAATT | 1.02 ± 0.018
152 | ACGGCGAGTC | 1.01 ± 0.024
153 | AGTAATATTT | 1.03 ± 0.0061
154 | TGTTTTACGA | 1.07 ± 0.043
155 | ACCAGGATGC | 1.225 ± 0.0042
156 | CATAGGTAGT | 0.981 ± 0.016
157 | TTGAGAGGGT | 0.9859 ± 0.0089
